{
  "source": "the DeepSol protein solubility set",
  "test": "soluble on expression in E. coli; label from the status in PepcDB or PDB records",
  "data": [
    {"sequence": "MNSITCPKCGTECDKLFDSVCRDCFFETFKLIDLPLVLHVKICSSCGAYFHRSRWENIGNLEEVVLKAVENALFIHDEAGDVELYLEPKEITPYIYMVRAEVDAIVRGEPVHAEAATEVRVQRIACDMCSRESGGYFEAIIQIRAAGRFPTEEEKRRCSAIAREAMESMKKKGDRLAFISDYQEQKEGIDLYMGSMNASRQVCRMIISELGGSFAESPTLVGMKDGKNLYRITFAMRLPEFRPGDVIRFRGRIIQIRSSGKKVNGISLEDGSRFLSTPEELKGAEKIANIGDAVLTVLVSIEENAILVLDPETYETVAIKKPMFFNAEAGSEIPVLKTEYGIFALAHTDIPQEKLEHHHHHH", "values": [
      {"measurement": "soluble on expression in E. coli", "result": "soluble"}
    ]},
    {"sequence": "MVNKMDIIPEITRKSITDLINNKERIDGRSLHEFRDISIETGVISKAEGSSRVKLGNTQIIVGVKPQIGEPFPDTPEMGVILTNSELLPMASPTFEPGPPDERSVELSRVVDRCIRESRMIDLEKLCIIEGSKVWMLFLDLHIIDYDGNLFDAAVLATVAALLDTRIPAAEVEDGEVVINREKMQPLPVNRKALMCTFAKIGNEIVLDPSLEEEDILTARISIGVTEEGSICAMQKGGEGPLTRDDVLKAVSIAVEKVPQLIEYLDKSMTP", "values": [
      {"measurement": "soluble on expression in E. coli", "result": "soluble"}
    ]},
    {"sequence": "MTESTFPQYPRLVLSKGREKSLLRRHPWVFSGAVSRLEGKANLGETIDIVDHQGKWLARGAWSPASQIRARVWTFDKAESIDIAFFTRRLRQAQQWRDWLAKKDGLDSYRLIAGESDGLPGVTIDRFGHFLVLQLLSAGAEYQRAALISALQTCYPDCAIYDRSDVAVRKKEGMALTQGPVTGELPPALLPIEEHGMKLLVDIQGGHKTGYYLDQRDSRLATRRYVENQRVLNCFSYTGGFAVSALMGGCRQVVSVDTSQDALDIARQNVELNQLDLSKAEFVRDDVFKLLRAYREHGEKFDVIIMDPPKFVENKSQLMGACRGYKDINMLAIQLLNPGGILLTFSCSGLMTSDLFQKIIADAAIDAGRDVQFIEQFRQAADHPVIATYPEGLYLKGFACRVM", "values": [
      {"measurement": "soluble on expression in E. coli", "result": "not soluble"}
    ]},
    {"sequence": "MSLHMSQTTQTDIITLGAVAAKIPQLIPKVPHLLNGLKQAYLRTPSTPAGLGIAFEKAVKRNPDGMALLFEDERYSYQELNEWANQIAHFYLSLGARKGDVIAVMVENRSELLATIVALAKIGVTAALVNTSQTGKVLTHSINLVQPIALIVGEEVRKCVDEIKQDLNLAQDRFHWFANQATRQDAGSAPRDYINLAEKIDHFPKFNPPTTQTVQGKDGLFYIYTSGTTGLPKAVIFTHSRWTLAYGTYGHVLALDENDVMYVTLPMYHATGIVVCWCGVIAGSATLALRRKYSTSAFWKDVQKFNASAIGYVGELCRYLMDAPPSELDRHHRVTKMIGNGMRPNIWDKFKQRFGVKEILELYASSEGNVGFSNIFNFDNTVGFSPTPYAVIAFDKEKNEPIRDQNGYCQKVKTGEVGLLVGKITRRSPFDGYTDPEKNKSVILKNVFKKGDSYFNTGDLVRDIGFRHAQFVDRLGDTFRWKGENVSTTEVENMLCEYEKIVEAVVYGVEIPNTNGRAGMAAITLNDQAEFNDEDMSAMVNTFKKCLPAYAIPVFLRVQKTVETTGTFKYQKNKLKEQAFDPSKTEERLLVLLPGESAYCEVTSEIFDNIQAYKYREGHHHHHH", "values": [
      {"measurement": "soluble on expression in E. coli", "result": "soluble"}
    ]},
    {"sequence": "MALHDENVVWHSHPVTVQQRELHHGHRGVVLWFTGLSGSGKSTVAGALEEALHKLGVSTYLLDGDNVRHGLCSDLGFSDADRKENIRRVGEVANLMVEAGLVVLTAFISPHRAERQMVRERVGEGRFIEVFVDTPLAICEARDPKGLYKKARAGELRNFTGIDSVYEAPESAEIHLNGEQLVTNLVQQLLDLLRQNDIIRS", "values": [
      {"measurement": "soluble on expression in E. coli", "result": "soluble"}
    ]},
    {"sequence": "MAFNSALFDGMVIFSEVVTSGSFTQAALNSGHSTSYISKEIGKLEERLGVRLLHRTTRTLRLTPEGELYFQQCQQLIEDAQMAENSITGQQEKPKGRLKVSCPVGFALSRLRPILGKFTDLYPDIILELDLNDKKIDIVAEGFDMAIRASHQLEDSSLISRRFLRSKAITIASPGYLKKHGAPLYPHDLSSHKTIGYAYVKQGAIWDFFDKNKQPFSVQLNSQVITNNSFMALSLCLAEQGITRIPHFHLTDELETGKLVELFADYPKLTIDIFMVYPSRKHMSAKVRCFMDFISEHLGD", "values": [
      {"measurement": "soluble on expression in E. coli", "result": "not soluble"}
    ]},
    {"sequence": "MGSDKIHHHHHHDSKQSQDLIVKTAQAVSASGIKTTEFPFIAQPFRTSELSFRVGGPIDRLDVYAGNHYKQGSIIAEIDPRDFHIRKERAEAIYHQAKAEFERIEKLYEKNNVSASTYEKTKADYTTAKTAFDTASNELGDTRLTAPFDGYVGEVYIEKYQDVKPAQPVISFIDINRLKIEIYVTQNIAFASHPTDSVRIYFDAQPDKYYKAQIVEVSKGTTRNNLSYLLTAVLPNKEGKLLAGMSGKAIFDAPGTTDLTGVSIPQTALCYRPSEGEYVWVIDTNTRQVNRRTVKKGNLLPGGYVTITEGLRASETVATSGLRFLSDGMKVEISTKTNSL", "values": [
      {"measurement": "soluble on expression in E. coli", "result": "not soluble"}
    ]},
    {"sequence": "MAHHHHHHMADLRDELDATALFGSGYVCIVGPPSSGKTTLILEYLVARERQAVHSGDGDAAAFCMEYVSARSAPHELLRHLTYRLLPHARRRRLSYECTPLEFSASLVEWVEAHPGQSELHLVVDDADALEYSAEEMNLWLSHYLRAPAEQRCTVILWLISELPLRLSNCFRYHFIARPEANSIVQWLHHQFEEERRLLAGLESEEDDSEHTVNGAPMTTLSADEVNRVVLDAFTYYATHQPMCSSVVSRDVRLLVQRVYQILPPLLLEVAATTSAVPGESGEAAVSASTTADAVKKLNARHFAAAWSQYRSDGGGGTSSAMAVSGAAASAQNTLVMALKRLGYSAVLLAFAAFYGGAVPKRQQHQVFGRIGSGERQPPLHEAKGQSHKAAVLTASAHVVTLRRLGFLYDAMLRMCTPHIDPLEFTTADVALQYVQGFVAWGLLTPVVSQRHRSYHCWIPVSTAPAVGA", "values": [
      {"measurement": "soluble on expression in E. coli", "result": "not soluble"}
    ]},
    {"sequence": "MKSYLVGGAVRDALLGLPVKDRDWVVVGATPQQMLDAGYQQVGRDFPVFLHPQSREEYALARTERKSGAGYTGFTCYAAPDVTLEADLLRRDLTVNALAQDADGAIIDPYGGQNDLRKRLLRHVSPAFSEDPLRVLRVARFAARYAHLGFRIAEETQALMAAIVEAGELAHLTPERVWKETESALTTRNPQVFFQTLRDCQALKVLFPEIDALYGVPAPAKWHPEIDTGLHTLMTVTMAAMLSPDVDVRFATLCHDLGKGLTPKALWPRHHGHGPAGVKLVEQLCARLRVPNDIRDLAKLVAEYHDLIHTLPILQPKTLVKLFDSIDAWRKPQRVQQIALTSEADVRGRTGFEASDYPQGRLLLEAWEVAQSVSTKEVVAAGFKGAEIREELTRRRIAAVAQWKEQRCPQPQG", "values": [
      {"measurement": "soluble on expression in E. coli", "result": "not soluble"}
    ]},
    {"sequence": "MVQRVTIAPQGPEFSRFVMGYWRLMDWNMSARQLVSFIEEHLDLGVTTVDHADIYGGYQCEAAFGEALTLAPHLREKLQIVTKCGIATTARAENKLGHYITDRRHIILSAEQSLKNLATDYLDMLLIHRPDPLMDADDVAEAFQHLHQSGKVRHFGVSNFTPAQFTLLQSRLPFTLATNQVEISPVHQPLLLDGTLDQLQQLRIRPMAWSCLGGGRLFNDEAYQPLRQELSVIAQELNASSIEQVVYAWILRLPSQPLPIIGSGKIERVRAALEAETLSLTRQQWFRIRKAALGYDVP", "values": [
      {"measurement": "soluble on expression in E. coli", "result": "not soluble"}
    ]},
    {"sequence": "MVQAEGLTKRYRKAVAVEGLTFGVGPGEVYALLGPNGAGKTTTLRLLSTLVRPSAGRALVAGFDVVREPLEVRRNLGLVNGGMRVYERLTGREVLEFFAGFYGLKGRAFLGALDWVVDLLEMEETLDKKVGEMSTGMRQKVVIARAILHRPKVLLLDEATAGLDIFARRALLDFVKAYRDLGHAVIYSTHVMGEAEEVADRVGFLHRGRLVYEGSKEEALALGEGSLERAFVRQVRGA", "values": [
      {"measurement": "soluble on expression in E. coli", "result": "soluble"}
    ]},
    {"sequence": "MGSDKIHHHHHHMLYQLHEFQRSMLHPLTAWAQATAKTFTNPLSPLSLVPGAPRLAAGYELLYRLGKEYEKPAFDIKSVRSNGREIPIVEQTIMEKPFCRLVRFKRYADDPDTIKLLKDEPVVLVAAPLSGHHATLLRDTVRTLLQDHKVYVTDWVDARMVPAEHGPFHLSDYIYYIQEFIRHIGADKLHVISVCQPTVPVLAAISLMASAGEKTPLTMTMMGGPIDARKSPTAVNSLATNKSFEWFENNVIYTVPANYPGHGRRVYPGFLQHAGFVAMNPDRHLSSHYDYYLSLIQGDADDAEAHVRFYDEYNAVLDMAAEYYLDTIREVFQEFRLANGTWTIDGNPVRPQDIKGTALLTVEGELDDISGAGQTSAAHDLCAGIPQTHKHHLSAAKCGHYGIFSGRRWRDEIYPQLRDFIRKYR", "values": [
      {"measurement": "soluble on expression in E. coli", "result": "not soluble"}
    ]}
  ]
}
